Source: paper PMC5587573

Target: T1, Escherichia coli trigger factor (Escherichia coli), P0A850
T1 chain: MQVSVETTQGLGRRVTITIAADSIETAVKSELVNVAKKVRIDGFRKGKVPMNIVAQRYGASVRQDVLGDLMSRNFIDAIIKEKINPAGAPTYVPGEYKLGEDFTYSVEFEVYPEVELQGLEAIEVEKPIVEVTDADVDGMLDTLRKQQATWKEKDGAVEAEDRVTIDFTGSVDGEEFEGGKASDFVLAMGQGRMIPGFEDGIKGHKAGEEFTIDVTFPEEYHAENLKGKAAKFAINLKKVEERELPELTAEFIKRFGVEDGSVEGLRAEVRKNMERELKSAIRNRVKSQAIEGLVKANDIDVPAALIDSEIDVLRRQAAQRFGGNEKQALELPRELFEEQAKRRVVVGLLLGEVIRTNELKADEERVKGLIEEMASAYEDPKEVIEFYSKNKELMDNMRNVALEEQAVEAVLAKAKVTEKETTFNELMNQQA
Experiment: SAXS (static); five to eight protein concentrations; 20 mM Tris pH 7.5, 150 mM KCl; 20 °C; BM29 beamline, ESRF; self-association
Details: remark: other sources report otherwise

B1: Escherichia coli trigger factor, P0A850 1-432 (natural protein)
chain: T1 chain
  stoichiometry N: 2
